For this experiment, the target named is Avastin™ (Bevacizumab). The experiment in a line: competition ELISA, inhibition of Avastin binding to coated humVEGF1-165.

Bounds are passed on as bounds.

B1: oxid-humVEGF26-104 (designed binder)
chain: CHPIETLVDIFQEYPDEIEYIFKPSAVPLMRCGGACNDEGLECVPTEESNITMQIMRIKPHQGQHIGEMSFLQHNKCEC
modifications: N-terminal acetyl; C-terminal amide; oxidatively folded cystine knot (three disulfide bonds C1-C4, C2-C5, C3-C6)
In turn, B1 returned a fold difference in affinity as compared to humVEGF1-165 of less than 5 fold.

Values taken from patent publication US20120231000A1.
